Data as given in PMC5787697, “Transcriptome-wide identification of the RNA-binding landscape of the chromatin-associated protein PARP1 reveals functions in RNA biogenesis”.

Columns and labels:
PARP1-FL [1] = target: T1, PARP1-FL (human, UniProt P09874 1-1014); assay: EMSA; monomer-equivalent K, n=1.70±0.14; 25 mM Tris pH 7.5, 75 mM NaCl, 50 mM arginine, 0.1 mM TCEP, 0.1 ug/ul BSA, room temperature 30 min; 0.05 uM probe, 0-2.5 uM protein; native 10% PAGE in TBE; conditions: protein: recombinant; tags: His; chain copies: 2; label: 32P; single strand
PARP1-ΔZn1ΔZn2 [2] = target: T2, PARP1-ΔZn1ΔZn2 (human, UniProt P09874 216-1014); assay: EMSA; monomer-equivalent K, n=2.04±0.15; 25 mM Tris pH 7.5, 75 mM NaCl, 50 mM arginine, 0.1 mM TCEP, 0.1 ug/ul BSA, room temperature 30 min; 0.05 uM probe, 0-2.5 uM protein; native 10% PAGE in TBE; conditions: protein: recombinant; tags: His; chain copies: 2; label: 32P; single strand
PARP1-ΔCAT [3] = target: T3, PARP1-ΔCAT (human, UniProt P09874 1-662); assay: EMSA; monomer-equivalent K, n=2.04±0.13; 25 mM Tris pH 7.5, 75 mM NaCl, 50 mM arginine, 0.1 mM TCEP, 0.1 ug/ul BSA, room temperature 30 min; 0.05 uM probe, 0-2.5 uM protein; native 10% PAGE in TBE; conditions: protein: recombinant; tags: His; chain copies: 2; label: 32P; single strand
PARP1-ΔZn1ΔZn2 [4] = target: T2, PARP1-ΔZn1ΔZn2; assay: EMSA; monomer-equivalent K, n=2.16±0.19; 25 mM Tris pH 7.5, 75 mM NaCl, 50 mM arginine, 0.1 mM TCEP, 0.1 ug/ul BSA, room temperature 30 min; 0.05 uM probe, 0-2.5 uM protein; native 10% PAGE in TBE; conditions: protein: recombinant; tags: His; chain copies: 2; label: 32P; single strand
PARP1-ΔCAT [5] = target: T3, PARP1-ΔCAT; assay: EMSA; monomer-equivalent K, n=2.77±0.13; 25 mM Tris pH 7.5, 75 mM NaCl, 50 mM arginine, 0.1 mM TCEP, 0.1 ug/ul BSA, room temperature 30 min; 0.05 uM probe, 0-2.5 uM protein; native 10% PAGE in TBE; conditions: protein: recombinant; tags: His; chain copies: 2; label: 32P; single strand
PARP1-FL [6] = target: T1, PARP1-FL; assay: EMSA; monomer-equivalent K, n=2.17±0.15; 25 mM Tris pH 7.5, 75 mM NaCl, 50 mM arginine, 0.1 mM TCEP, 0.1 ug/ul BSA, room temperature 30 min; 0.05 uM probe, 0-2.5 uM protein; native 10% PAGE in TBE; conditions: protein: recombinant; tags: His; chain copies: 2; label: 32P; single strand
PARP1-ΔZn1ΔZn2 [7] = target: T2, PARP1-ΔZn1ΔZn2; assay: competition EMSA; vs N1 in same reaction; 25 mM Tris pH 7.5, 75 mM NaCl, 50 mM arginine, 0.1 mM TCEP, 0.1 ug/ul BSA, room temperature 30 min; 0.05 uM probe, 0-2.5 uM protein; native 10% PAGE in TBE; conditions: protein: recombinant; tags: His; chain copies: 2; label: 32P; single strand
PARP1-FL [8] = target: T1, PARP1-FL; assay: as above; conditions: protein: recombinant; tags: His; label: 32P; single strand
PARP1-ΔCAT [9] = target: T3, PARP1-ΔCAT; assay: as above; conditions: protein: recombinant; tags: His; chain copies: 2; label: 32P; single strand

T3 sequence (P09874 1-662, stated change not applied): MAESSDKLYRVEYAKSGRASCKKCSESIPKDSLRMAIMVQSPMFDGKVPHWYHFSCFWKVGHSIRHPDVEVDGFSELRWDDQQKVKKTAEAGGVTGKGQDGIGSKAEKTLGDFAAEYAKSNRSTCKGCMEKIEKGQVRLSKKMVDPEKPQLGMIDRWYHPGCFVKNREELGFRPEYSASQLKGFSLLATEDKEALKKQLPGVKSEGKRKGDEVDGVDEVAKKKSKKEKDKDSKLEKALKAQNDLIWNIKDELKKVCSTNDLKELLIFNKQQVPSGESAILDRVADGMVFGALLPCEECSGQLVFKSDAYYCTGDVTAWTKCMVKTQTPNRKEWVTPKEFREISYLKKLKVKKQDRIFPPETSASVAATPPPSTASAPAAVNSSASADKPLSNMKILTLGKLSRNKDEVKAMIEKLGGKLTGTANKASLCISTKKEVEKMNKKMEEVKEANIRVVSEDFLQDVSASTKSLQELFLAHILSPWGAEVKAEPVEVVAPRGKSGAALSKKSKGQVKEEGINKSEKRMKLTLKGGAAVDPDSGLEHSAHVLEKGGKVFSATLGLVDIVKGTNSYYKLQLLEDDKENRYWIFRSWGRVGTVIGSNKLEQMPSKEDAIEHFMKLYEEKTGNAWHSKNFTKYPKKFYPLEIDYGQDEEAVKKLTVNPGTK
T2 sequence (P09874 216-1014, stated change not applied): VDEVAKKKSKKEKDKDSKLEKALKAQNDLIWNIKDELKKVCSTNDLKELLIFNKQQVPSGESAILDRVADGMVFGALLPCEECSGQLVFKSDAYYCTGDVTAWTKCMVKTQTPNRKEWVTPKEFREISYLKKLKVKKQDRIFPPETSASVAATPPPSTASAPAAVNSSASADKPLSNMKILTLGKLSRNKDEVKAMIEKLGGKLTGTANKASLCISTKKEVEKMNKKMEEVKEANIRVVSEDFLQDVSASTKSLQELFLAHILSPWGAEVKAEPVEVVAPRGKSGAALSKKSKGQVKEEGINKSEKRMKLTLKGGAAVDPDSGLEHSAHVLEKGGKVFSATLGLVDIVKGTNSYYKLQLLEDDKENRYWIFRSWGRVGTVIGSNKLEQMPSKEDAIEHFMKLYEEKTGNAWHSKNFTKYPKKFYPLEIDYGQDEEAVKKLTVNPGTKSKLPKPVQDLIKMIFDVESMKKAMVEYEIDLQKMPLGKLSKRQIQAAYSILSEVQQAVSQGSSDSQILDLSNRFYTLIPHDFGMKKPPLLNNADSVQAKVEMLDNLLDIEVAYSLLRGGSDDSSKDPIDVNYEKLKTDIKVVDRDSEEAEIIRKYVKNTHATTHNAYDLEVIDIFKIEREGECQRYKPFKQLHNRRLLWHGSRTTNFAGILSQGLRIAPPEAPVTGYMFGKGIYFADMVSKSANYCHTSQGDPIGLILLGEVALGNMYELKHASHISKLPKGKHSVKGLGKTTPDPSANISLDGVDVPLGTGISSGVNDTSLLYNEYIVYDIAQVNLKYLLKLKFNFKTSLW
T1 sequence (P09874 whole entry): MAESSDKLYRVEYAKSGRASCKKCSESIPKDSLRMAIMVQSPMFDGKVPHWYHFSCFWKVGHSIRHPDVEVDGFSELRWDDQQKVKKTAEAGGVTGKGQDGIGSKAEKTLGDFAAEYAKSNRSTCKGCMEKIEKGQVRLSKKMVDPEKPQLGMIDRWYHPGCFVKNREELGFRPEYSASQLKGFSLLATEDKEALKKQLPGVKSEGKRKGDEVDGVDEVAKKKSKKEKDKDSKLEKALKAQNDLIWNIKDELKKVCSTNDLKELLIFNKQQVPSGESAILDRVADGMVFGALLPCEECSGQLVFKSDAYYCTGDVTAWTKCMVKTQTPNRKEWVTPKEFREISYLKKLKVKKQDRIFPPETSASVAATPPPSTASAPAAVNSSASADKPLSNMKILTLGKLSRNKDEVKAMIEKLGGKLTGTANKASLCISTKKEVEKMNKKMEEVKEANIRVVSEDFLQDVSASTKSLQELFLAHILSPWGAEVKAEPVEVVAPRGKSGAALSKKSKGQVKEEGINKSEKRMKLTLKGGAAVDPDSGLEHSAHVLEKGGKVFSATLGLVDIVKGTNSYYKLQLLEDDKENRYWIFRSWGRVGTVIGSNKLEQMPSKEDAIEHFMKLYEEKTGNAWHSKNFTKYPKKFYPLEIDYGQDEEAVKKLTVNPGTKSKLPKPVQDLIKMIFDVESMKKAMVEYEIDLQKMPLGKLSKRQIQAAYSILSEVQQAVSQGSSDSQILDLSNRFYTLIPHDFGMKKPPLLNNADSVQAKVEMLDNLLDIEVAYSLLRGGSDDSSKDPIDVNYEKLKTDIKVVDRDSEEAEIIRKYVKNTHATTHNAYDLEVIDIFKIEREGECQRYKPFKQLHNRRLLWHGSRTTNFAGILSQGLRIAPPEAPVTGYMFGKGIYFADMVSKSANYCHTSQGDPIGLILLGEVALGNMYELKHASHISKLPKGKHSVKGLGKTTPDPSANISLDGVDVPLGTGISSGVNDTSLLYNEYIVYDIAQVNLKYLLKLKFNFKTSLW

Binder: CCGUACGCGGGUUUAAACGA (ssRNA) [20-mer ssRNA]
- Ka (PARP1-FL [1]): 2.43e+06 M⁻¹
- Ka (PARP1-ΔZn1ΔZn2 [2]): 1.13e+06 M⁻¹
- Ka (PARP1-ΔCAT [3]): 770000 M⁻¹

Binder: CGUACGCGGAAUAGUUUAAACUGU (ssRNA) [24-mer ssRNA]
- Ka (PARP1-ΔZn1ΔZn2 [4]): 1.91e+06 M⁻¹
- Ka (PARP1-ΔCAT [5]): 2.91e+06 M⁻¹
- Ka (PARP1-FL [6]): 2.88e+06 M⁻¹

Binder: TAGGCACCGGCATCTTGAC (ssDNA) [19-mer ssDNA]
- binding signal (PARP1-ΔZn1ΔZn2 [7]): 0.0153 ± 0.021 KDNA/KRNA
- binding signal (PARP1-FL [8]): 25.3 ± 3 KDNA/KRNA
- binding signal (PARP1-ΔCAT [9]): 15.7 ± 3.9 KDNA/KRNA
